Laboratory results published in the supplement of paper PMC10567573.

B1: SLC35F2 (parent)
chain: SFMPLVIKVTSATSVNLGILTADL
B2: MAGEA6 (parent)
chain: KISGGPRISYPLLHEWALREGEE

Variants of: B1
Assay: protein stability index of a GFP-peptide fusion (GPS, HEK-293T) (PSI 1-6); higher = more stable
Conditions: c terminus: a fixed tail appended
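Also: lentivirally expressed fusions sorted by FACS into six bins by GFP to DsRed ratio, PSI derived from sequencing read proportions per bin multiplied by bin number.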

| Variant | protein stability index |
| --- | --- |
| SFMPLVIKVTSATSVNLGILTANL | 3.05 |
| SFMPLVIKVTSATSVNLGILTAPL | 2.65 |
| SFMPLVIKVTSATSVNLGILTAQL | 3.39 |
| SFMPLVIKVTSATSVNLGILTASL | 2.11 |
| SFMPLVIKVTSATSVNLGILTATL | 3.29 |
| SFMPLVIKVTSATSVNLGILTAVL | 3.83 |
| SFMPLVIKVTSATSVNLGILTAWL | 2.49 |
| SFMPLVIKVTSATSVNLGILTAYL | 3.03 |
| SFMPLVIKVTSATSVNLGILTADA | 3.11 |
| SFMPLVIKVTSATSVNLGILTADC | 3.76 |
| SFMPLVIKVTSATSVNLGILTADD | 1.55 |
| SFMPLVIKVTSATSVNLGILTADE | 2.21 |
| SFMPLVIKVTSATSVNLGILTADF | 3.22 |
| SFMPLVIKVTSATSVNLGILTADG | 3.04 |
| SFMPLVIKVTSATSVNLGILTADH | 3.57 |
| SFMPLVIKVTSATSVNLGILTADI | 3.14 |
| SFMPLVIKVTSATSVNLGILTADK | 2.4 |
| SFMPLVIKVTSATSVNLGILTADM | 3.01 |
| SFMPLVIKVTSATSVNLGILTADN | 3.27 |
| SFMPLVIKVTSATSVNLGILTADP | 3.07 |
| SFMPLVIKVTSATSVNLGILTADQ | 2.79 |
| SFMPLVIKVTSATSVNLGILTADR | 1.89 |
| SFMPLVIKVTSATSVNLGILTADS | 2.87 |
| SFMPLVIKVTSATSVNLGILTADT | 2.24 |
| SFMPLVIKVTSATSVNLGILTADV | 2.43 |
| SFMPLVIKVTSATSVNLGILTADW | 1.78 |
| SFMPLVIKVTSATSVNLGILTADY | 4.32 |

Variants of: B2
Assay: as above
Conditions: c terminus: native

| Variant | protein stability index |
| --- | --- |
| KISGGPRISYPLLHEYALREGEE | 4.84 |
| DISGGPRISYPLLHEWALREGEE | 3.3 |
| KISWGPRISYPLLHEWALREGEE | 2.78 |
| KIWGGPRISYPLLHEWALREGEE | 2.02 |
| KISGGPRISKPLLHEWALREGEE | 3.2 |
| KISGGPRISYPLLHEWALREKEE | 3.31 |
| KISGGPRISYPLLHESALREGEE | 2.33 |
| KISGGPLISYPLLHEWALREGEE | 1.92 |
| KISGGPRISYPLLHEWALREGEA | 1.23 |
| KISGGPRASYPLLHEWALREGEE | 1.95 |
| KISGGPRIFYPLLHEWALREGEE | 1.61 |
| KISGDPRISYPLLHEWALREGEE | 2.6 |
| KISGGPRISYPLLHEWCLREGEE | 3.28 |
| KISGGPRISYPLLHEWALNEGEE | 1.43 |
| KISGYPRISYPLLHEWALREGEE | 3.51 |
| KISGGPRISYPLLHEWALLEGEE | 3.32 |
| KISGGPRISYPLLHEWALREGEK | 2.88 |
| KISCGPRISYPLLHEWALREGEE | 3.34 |
| KISGGPRISYPLLHETALREGEE | 1.89 |
| KISGGPRICYPLLHEWALREGEE | 3.18 |
| KIMGGPRISYPLLHEWALREGEE | 2.63 |
| KISGGIRISYPLLHEWALREGEE | 3.5 |
| NISGGPRISYPLLHEWALREGEE | 2.62 |

| Variant | protein stability index |
| --- | --- |
| KISGGPRISYPLLHEWASREGEE | 2.31 |
| KISGGPRISYPTLHEWALREGEE | 2.23 |
| KISGGPRISYHLLHEWALREGEE | 2.24 |
| KISGGPRISYPLLHIWALREGEE | 2.14 |
| KISGGPRISYPLLHEWALREGWE | 1.87 |
| KISGGPRISYPLLHEWALREGGE | 2.18 |
| KISGGPRISYPLLHEWALREGEP | 1.89 |
| KISGGPRISYPLLHEWALREYEE | 2.4 |
| KISGGPRISYMLLHEWALREGEE | 2.61 |
| KISVGPRISYPLLHEWALREGEE | 1.61 |
| KDSGGPRISYPLLHEWALREGEE | 4 |
| KISGAPRISYPLLHEWALREGEE | 2.31 |
| KISGGPRISYPLLHEWALRWGEE | 2.32 |
| KISGGPRISYPLLHEWALEEGEE | 2.29 |
| KISGGPRISYPLLHEWALRLGEE | 3.74 |
| KISGGPRISYPLLHEWALREGAE | 2.4 |
| KISGGPRISYPLLHEWALREGEH | 2.73 |
| KISGGPRISYPLLHEWALRVGEE | 3.06 |
| KISGFPRISYPLLHEWALREGEE | 2.74 |
| KISGGPRISYPGLHEWALREGEE | 5.59 |
| KISGGPRMSYPLLHEWALREGEE | 2 |
| KISGGPRISYPLLHGWALREGEE | 3.53 |
| KISGGPGISYPLLHEWALREGEE | 2.84 |

| Variant | protein stability index |
| --- | --- |
| KISGGPRISYPLLHKWALREGEE | 3.16 |
| KISGGTRISYPLLHEWALREGEE | 2.8 |
| KISGGPRISYPLLHEWALRNGEE | 2.34 |
| KISGGPRISYPLLVEWALREGEE | 3.6 |
| KISGGPRISYPLLHEWALCEGEE | 2.87 |
| KISGGCRISYPLLHEWALREGEE | 2.05 |
| KISGGPRISYPLWHEWALREGEE | 3.38 |
| KISTGPRISYPLLHEWALREGEE | 4.54 |
| KISGGPRISYPLLHEWAWREGEE | 2.78 |
| KISGGPRISYRLLHEWALREGEE | 3.25 |
| KISGGPRISYPLLHEWALREGED | 3.38 |
| KISGGPRISYPLLHEWATREGEE | 2.04 |
| KISGGPRISYPLLHEWALREGER | 1.88 |
| KISGGPRISYPLLHEWALREGEM | 2.17 |
| KISGGPRISYPLLHNWALREGEE | 2.31 |
| KISGGPRISYPLLHEWALGEGEE | 2.67 |
| KISGGPRISYPLQHEWALREGEE | 2.27 |
| KISGGPRISYPLLHEWAEREGEE | 3.11 |
| KISGGPRISYPLLSEWALREGEE | 3.4 |
| KISGGPRISYILLHEWALREGEE | 2.41 |
| KISGGPRISYPLLHECALREGEE | 2.94 |
| KISGGPRISYPLLHEWALREGEW | 1.94 |
| KISGGPRISYPLLHEWAQREGEE | 1.63 |
